Data as given in paper PMC3861479, “LipL41, a Hemin Binding Protein from Leptospira santarosai serovar Shermani” (PLoS ONE, 2013).
Where a chain is given by its changes, count along the chain named. In names and notes the source's numbering stands.

B1: LipL41-C100 with a TPR-containing fragment of residues 256-355 (domain or fragment)
chain: KDEDEEVKELLQEGYEEIVGETPSFKKAKEAWEKADKKAKGQSWGAKANLATYYFSIGDFEKSIKLYEEAMKLKDADKSYLRELRKRVEATFAVDESNAK
notes: source: E. coli, expression and purification similar to that of the wildtype
B2: LipL41 C140A/C220A (natural protein)
chain: AATVDVEYPVFPKDKEGRALQKFLGTIRNVGLAVEPPKKSLWEAIFGEGSSFIDQMPSKVFEAFDKESYYKLTDLSKRADILNEATLSLTGITKSRAKIGNLIGAEAILYIGYQKPYTEASTENKIDAVAAGIKVAGFVASAATGKDVNTGNDPVSKPTGVRMMLIPLDATLIKVETGEVKKAVVSSPAKIFNSVGNLEAPSILDSFGQGLDEAAAYIKGRLSPIVKTERIKVFVKDEDEEVKELLQEGYEEIVGETPSFKKAKEAWEKADKKAKGQSWGAKANLATYYFSIGDFEKSIKLYEEAMKLKDADKSYLRELRKRVEATFAVDESNAK
notes: also called cysteine double mutant; HRM-mutated LipL41; source: E. coli, expression and purification similar to that of the wildtype
B3: LipL41 C140A (natural protein)
chain: B2 chain with A200C
notes: also called HRM-mutated LipL41; source: E. coli, expression and purification similar to that of the wildtype
B4: recombinant LipL41 (Ala21 - Lys355) with an N-terminal His6-tag (natural protein)
chain: B2 chain with A120C, A200C
notes: also called LipL41 wildtype; pRSET-LipL41; source: E. coli BL21(DE3), purified (Ni-NTA); copies: 36
B5: LipL41 C220A (natural protein)
chain: B2 chain with A120C
notes: as for B3

What was measured:
[1] = target: the molecule itself; experiment: SEC + AUC; LipL41-C100 in solution; data not shown
[2] = target: the molecule itself; experiment: negative-stain transmission electron microscopy; 0.1 mg/ml LipL41 on a glow-discharged copper grid, 2% uranyl acetate; class averages with EMAN2

Protein | binding result [2] | further results
B1 | – | stoichiometry N [1]: 2
B2 | binds | –
B3 | binds | –
B4 | – | stoichiometry N [2]: 36
B5 | binds | –
